Assay [1] has as its system GFP-14-3-3β. Nature of the assay: GFP-14-3-3β co-IP with LC-MS/MS, untreated GFP-14-3-3β versus GFP control (14-3-3 interactome). Type of assay: binding, human. The note with it: pairwise comparison untreated vs GFP.
The subject of assay [2] is GFP-14-3-3β and its binding proteins. Nature of the assay: GFP-14-3-3β co-IP with LC-MS/MS label-free quantification, untreated versus PP1c-treated. On the set-up: species or system human. The note with it: pairwise comparison PP1 vs untreated.

B1: LRRC59 (protein, UniProt Q96AG4 1-307, looked up)
Leucine-rich …: MTKAGSKGGNLRDKLDGNELDLSLSDLNEVPVKELAALPKATILDLSCNKLTTLPSDFCGLTHLVKLDLSKNKLQQLPADFGRLVNLQHLDLLNNKLVTLPVSFAQLKNLKWLDLKDNPLDPVLAKVAGDCLDEKQCKQCANKVLQHMKAVQADQERERQRRLEVEREAEKKREAKQRAKEAQERELRKREKAEEKERRRKEYDALKAAKREQEKKPKKEANQAPKSKSGSRPRKPPPRKHTRSWAVLKLLLLLLLFGVAGGLVACRVTELQQQPLCTSVNTIYDNAVQGLRRHEILQWVLQTDSQQ
As for B1, the “Difference (log2), untreated vs GFP” value in assay [1] stood at 0.4854 log2. Further, in assay [2], the “Difference (log2), PP1 vs untreated” value is on record as 0.2489 log2.

B2: JUP (protein, UniProt P14923 1-745, looked up)
Junction plakoglobin: MEVMNLMEQPIKVTEWQQTYTYDSGIHSGANTCVPSVSSKGIMEEDEACGRQYTLKKTTTYTQGVPPSQGDLEYQMSTTARAKRVREAMCPGVSGEDSSLLLATQVEGQATNLQRLAEPSQLLKSAIVHLINYQDDAELATRALPELTKLLNDEDPVVVTKAAMIVNQLSKKEASRRALMGSPQLVAAVVRTMQNTSDLDTARCTTSILHNLSHHREGLLAIFKSGGIPALVRMLSSPVESVLFYAITTLHNLLLYQEGAKMAVRLADGLQKMVPLLNKNNPKFLAITTDCLQLLAYGNQESKLIILANGGPQALVQIMRNYSYEKLLWTTSRVLKVLSVCPSNKPAIVEAGGMQALGKHLTSNSPRLVQNCLWTLRNLSDVATKQEGLESVLKILVNQLSVDDVNVLTCATGTLSNLTCNNSKNKTLVTQNSGVEALIHAILRAGDKDDITEPAVCALRHLTSRHPEAEMAQNSVRLNYGIPAIVKLLNQPNQWPLVKATIGLIRNLALCPANHAPLQEAAVIPRLVQLLVKAHQDAQRHVAAGTQQPYTDGVRMEEIVEGCTGALHILARDPMNRMEIFRLNTIPLFVQLLYSSVENIQRVAAGVLCELAQDKEAADAIDAEGASAPLMELLHSRNEGTATYAAAVLFRISEDKNPDYRKRVSVELTNSLFKHDPAAWEAAQSMIPINEPYGDDMDATYRPMYSSDVPLDPLEMHMDMDGDYPIDTYSDGLRPPYPTADHMLA
Regarding B2, in assay [1], the “Difference (log2), untreated vs GFP” value is -0.9623 log2. Also, in assay [2], the “Difference (log2), PP1 vs untreated” value is given as 0.2305 log2.

B3: TMEM41B (protein, UniProt Q5BJD5 1-291, looked up)
Transmembrane protein 41B: MAKGRVAERSQLGAHHTTPVGDGAAGTRGLAAPGSRDHQKEKSWVEAGSARMSLLILVSIFLSAAFVMFLVYKNFPQLSEEERVNMKVPRDMDDAKALGKVLSKYKDTFYVQVLVAYFATYIFLQTFAIPGSIFLSILSGFLYPFPLALFLVCLCSGLGASFCYMLSYLVGRPVVYKYLTEKAVKWSQQVERHREHLINYIIFLRITPFLPNWFINITSPVINVPLKVFFIGTFLGVAPPSFVAIKAGTTLYQLTTAGEAVSWNSIFILMILAVLSILPAIFQKKLKQKFE
Consider B3, for which the “Difference (log2), untreated vs GFP” value in assay [1] was found to be 0.8349 log2. Further, the “Difference (log2), PP1 vs untreated” value in assay [2] stood at 0.218 log2.

B4: ACSL3 (protein, UniProt O95573 1-720, looked up)
Fatty acid CoA ligase Acsl3: MNNHVSSKPSTMKLKHTINPILLYFIHFLISLYTILTYIPFYFFSESRQEKSNRIKAKPVNSKPDSAYRSVNSLDGLASVLYPGCDTLDKVFTYAKNKFKNKRLLGTREVLNEEDEVQPNGKIFKKVILGQYNWLSYEDVFVRAFNFGNGLQMLGQKPKTNIAIFCETRAEWMIAAQACFMYNFQLVTLYATLGGPAIVHALNETEVTNIITSKELLQTKLKDIVSLVPRLRHIITVDGKPPTWSEFPKGIIVHTMAAVEALGAKASMENQPHSKPLPSDIAVIMYTSGSTGLPKGVMISHSNIIAGITGMAERIPELGEEDVYIGYLPLAHVLELSAELVCLSHGCRIGYSSPQTLADQSSKIKKGSKGDTSMLKPTLMAAVPEIMDRIYKNVMNKVSEMSSFQRNLFILAYNYKMEQISKGRNTPLCDSFVFRKVRSLLGGNIRLLLCGGAPLSATTQRFMNICFCCPVGQGYGLTESAGAGTISEVWDYNTGRVGAPLVCCEIKLKNWEEGGYFNTDKPHPRGEILIGGQSVTMGYYKNEAKTKADFFEDENGQRWLCTGDIGEFEPDGCLKIIDRKKDLVKLQAGEYVSLGKVEAALKNLPLVDNICAYANSYHSYVIGFVVPNQKELTELARKKGLKGTWEELCNSCEMENEVLKVLSEAAISASLEKFEIPVKIRLSPEPWTPETGLVTDAFKLKRKELKTHYQADIERMYGRK
B4: the “Difference (log2), untreated vs GFP” value in assay [1] is on record as 0.1591 log2. For the same molecule, the “Difference (log2), PP1 vs untreated” value in assay [2] is 0.2597 log2.

B5: PLEKHA7 (protein, UniProt Q6IQ23 1-1121, looked up)
Pleckstrin homology …: MAAATVGRDTLPEHWSYGVCRDGRVFFINDQLRCTTWLHPRTGEPVNSGHMIRSDLPRGWEEGFTEEGASYFIDHNQQTTAFRHPVTGQFSPENSEFILQEEPNPHMSKQDRNQRPSSMVSETSTAGTASTLEAKPGPKIIKSSSKVHSFGKRDQAIRRNPNVPVVVRGWLHKQDSSGMRLWKRRWFVLADYCLFYYKDSREEAVLGSIPLPSYVISPVAPEDRISRKYSFKAVHTGMRALIYNSSTAGSQAEQSGMRTYYFSADTQEDMNAWVRAMNQAAQVLSRSSLKRDMEKVERQAVPQANHTESCHECGRVGPGHTRDCPHRGHDDIVNFERQEQEGEQYRSQRDPLEGKRDRSKARSPYSPAEEDALFMDLPTGPRGQQAQPQRAEKNGMLPASYGPGEQNGTGGYQRAFPPRTNPEKHSQRKSNLAQVEHWARAQKGDSRSLPLDQTLPRQGPGQSLSFPENYQTLPKSTRHPSGGSSPPPRNLPSDYKYAQDRASHLKMSSEERRAHRDGTVWQLYEWQQRQQFRHGSPTAPICLGSPEFTDQGRSRSMLEVPRSISVPPSPSDIPPPGPPRVFPPRRPHTPAERVTVKPPDQRRSVDISLGDSPRRARGHAVKNSSHVDRRSMPSMGYMTHTVSAPSLHGKSADDTYLQLKKDLEYLDLKMTGRDLLKDRSLKPVKIAESDTDVKLSIFCEQDRVLQDLEDKIRALKENKDQLESVLEVLHRQMEQYRDQPQHLEKIAYQQKLLQEDLVHIRAELSRESTEMENAWNEYLKLENDVEQLKQTLQEQHRRAFFFQEKSQIQKDLWRIEDVTAGLSANKENFRILVESVKNPERKTVPLFPHPPVPSLSTSESKPPPQPSPPTSPVRTPLEVRLFPQLQTYVPYRPHPPQLRKVTSPLQSPTKAKPKVEDEAPPRPPLPELYSPEDQPPAVPPLPREATIIRHTSVRGLKRQSDERKRDRELGQCVNGDSRVELRSYVSEPELATLSGDMAQPSLGLVGPESRYQTLPGRGLSGSTSRLQQSSTIAPYVTLRRGLNAESSKATFPRPKSALERLYSGDHQRGKMSAEEQLERMKRHQKALVRERKRTLGQGERTGLPSSRYLSRPLPGDLGSVC
Take B5: the “Difference (log2), untreated vs GFP” value in assay [1] was determined as 1.203 log2. In addition, in assay [2], the “Difference (log2), PP1 vs untreated” value is given as 0.2527 log2.

The record behind these values is PMC7367873, “Dissecting the sequence determinants for dephosphorylation by the catalytic subunits of phosphatases PP1 and PP2A” (Nature Communications, 2020).
